Source: publication PMC9328939, “A Randomized Double‐Blind Placebo‐Controlled First‐In‐Human Phase 1 Trial of TransCon PTH in Healthy Adults” (Journal of Bone and Mineral Research, 2020)

Tests used:
healthy adults [1] = test: Pharmacodynamics: fractional excretion of calcium (FECa); assay type: in vivo, human; settings: despite mild hypercalcemia, normal limits approximately 0.4% to 2%
Procedure: (§1) Twice‐daily 12‐hour urine samples (including calcium, phosphorus, magnesium, and creatinine) were also collected. In MAD cohorts, serum samples collected from TransCon PTH‐treated and placebo‐treated subjects predose and postdose on day 14 were analyzed for anti‐PTH binding antibodies by BioAgilytix (Durham, NC, USA) using an electrochemiluminescence bridging assay. Samples were analyzed using a multitiered approach consisting of a screening assay and a confirmatory assay.

healthy adults [2] = test: Pharmacodynamics: renal tubular maximum reabsorption of phosphate/GFR (TMP/GFR); assay type: in vivo, human; settings: MAD cohorts, near steady-state (days 8 to 10); linear regression on dose, p = .0022
Procedure: The ratio, TMP/GFR is based on sP, urine phosphate (uP), serum creatinine (sCr), and urine creatinine (uCr) and was calculated as follows[18]: (2) TMP/GFR=sP–uPxsCr/uCr
(§2) All statistical analyses were performed using SAS 9.3 or higher (SAS Institute, Inc., Cary, NC, USA). Summary statistics were reported for continuous data, including mean, standard deviation, standard error, median, minimum, and maximum, whereas number and percentage of subjects within treatment groups were reported for categorical data. For sP and TMP/GFR, a linear regression model was performed for the change from baseline, with dose and baseline as independent variables at near steady‐state. Near steady‐state was defined as the average of predose values on day 8, 9, and 10. Dose was defined as a continuous variable where placebo was considered zero.

[3] = test system: anti-PTH binding antibodies; test: Anti-PTH binding antibodies, electrochemiluminescence bridging assay; assay type: in vivo, human; settings: MAD cohorts, serum predose and day 14; screening and confirmatory assay
Procedure: as §1

healthy adults [4] = test: Pharmacodynamics: serum phosphate (sP); assay type: in vivo, human; settings: MAD cohorts, near steady-state (days 8 to 10); linear regression on dose, p = .0430
Procedure: as §2

healthy adults [5] = test: Pharmacodynamics: suppression of intact endogenous PTH(1-84); assay type: in vivo, human
Procedure: (§3) The PD endpoints included albumin‐adjusted sCa, fractional excretion of calcium, sP, renal tubular maximum reabsorption of phosphate/glomerular filtration rate (TMP/GFR), intact endogenous PTH(1‐84), osteoblastic bone formation markers (serum bone‐specific alkaline phosphatase [BSAP] and P1NP), osteoclastic bone resorption markers (urine NTx and serum CTx), sMg, and 1,25‐dihydroxyvitamin D. PK samples were collected predose and at regular intervals postdose through 96 hours for the SAD cohorts and through day14 for the MAD cohorts.

[6] = Pharmacokinetics of Free PTH after 10 daily s.c. doses of TransCon PTH (MAD cohorts); settings: for Free PTH AUC0-24h / Free PTH t½ / Free PTH Cmax: geometric mean (CV%); for Free PTH tmax: median (min-max)
Procedure: (§4) Subjects attended a screening visit; those who met eligibility criteria were randomly assigned to a SAD or MAD cohort (n = 10/cohort; eight active and two placebo) and received a single or multiple dose(s) of TransCon PTH, respectively, via a syringe and 31G 8‐mm needle s.c. to the abdomen. Single TransCon PTH doses ranged from 3.5 to 124 μg PTH(1‐34) (containing PTH(1‐34) [Bachem AG, Bubendorf, Switzerland], identical to the first 34 amino acids of rhPTH). Multiple TransCon PTH doses administered daily for 10 days ranged from 3.5 to 24 μg PTH(1‐34)/day.
(§5) The primary PK endpoints therefore included Free PTH (defined as the sum of Free PTH(1‐34) and Free PTH(1‐33)) as well as TransCon PTH.
(§6) The PK samples were analyzed by PRA Health Sciences (Assens, the Netherlands); Free PTH was quantified using protein precipitation, liquid‐liquid extraction, and solid‐phase extraction followed by ultra high‐performance liquid chromatography with tandem mass spectrometry detection measuring the two peptides, PTH(1‐34) and PTH(1‐33), by collection of both transitions simultaneously. Free PTH was calculated only if samples contained quantifiable levels of both Free PTH(1‐34) and Free PTH(1‐33); ie, above 1.40 and 0.958 pg/mL for Free PTH(1‐34) and Free PTH(1‐33), respectively. No lower limit of quantification was calculated for Free PTH because the ratio between Free PTH(1‐34) and Free PTH(1‐33) is not constant.
(§7) The PK parameters were calculated using Phoenix WinNonlin, version 6.4 (Certara USA, Inc., Princeton, NJ, USA). For Free PTH, tmax was defined as the time to maximum observed concentration and Cmax was defined as the maximum observed concentration. […] Peak‐to‐trough was calculated as the ratio of Cmax to C24h at steady‐state.

healthy adults [7] = test: Pharmacodynamics: bone turnover markers (serum BSAP, P1NP, CTx; urine NTx); assay type: in vivo, human; settings: MAD
Procedure: as §3

[8] = Pharmacokinetics of Free PTH after a single s.c. dose of TransCon PTH (SAD cohorts); assay type: in vivo, human; settings: for Free PTH tmax: median (min-max); for Free PTH Cmax / Free PTH t½ / Free PTH AUC0-t: geometric mean (CV%)
Procedure: as §4, §5, §6, §7

healthy adults [9] = test: Pharmacodynamics: 1,25-dihydroxyvitamin D; assay type: in vivo, human; settings: healthy subjects; data not shown
[10] = MAD cohorts, daily doses x 10 days
[11] = MAD, 12 μg PTH(1-34)/day s.c. x 10 days, n = 6
[12] = MAD, 16 μg PTH(1-34)/day s.c. x 10 days, n = 7
[13] = MAD, 20 μg PTH(1-34)/day s.c. x 10 days, n = 6
[14] = MAD, 24 μg PTH(1-34)/day s.c. x 10 days, n = 3
[15] = single s.c. 72 μg PTH(1-34), n = 7
[16] = single s.c. 100 μg PTH(1-34), n = 8
[17] = single s.c. 124 μg PTH(1-34), n = 8

TransCon PTH: long-acting, essentially inactive prodrug: PTH(1-34) transiently bound to an inert 40 kDa mPEG carrier via a proprietary autocleaving linker
FECa (spot) (healthy adults [1]; [10]): remained essentially within normal limits
FECa (healthy adults [1]; SAD cohorts, data not shown): remained essentially within normal limits
change in TMP/GFR from baseline (healthy adults [2]): significant dose‐dependent decrease
anti-PTH antibodies [3]: No anti‐PTH antibodies were detected
change in serum phosphate (sP) from baseline (healthy adults [4]): significant dose‐dependent decrease
intact endogenous PTH(1-84) (healthy adults [5]; [10]): dose‐dependent suppression
intact endogenous PTH(1-84) (healthy adults [5]; SAD cohorts, data not shown): dose‐dependent suppression
Free PTH AUC0-24h ([6]; MAD, 12 μg PTH(1-34)/day s.c. x 10 days, healthy adults, plasma, UHPLC-MS/MS, n = 5): 122 (13.4) (n = 5) h*pg/mL
Free PTH t½ ([6]; MAD, 12 μg PTH(1-34)/day s.c. x 10 days, n = 4): 64.8 (39.2) (n = 4) h
Free PTH Cmax [6, 11]: 6.24 (13.1) (n = 6) pg/mL
Free PTH tmax [6, 11]: 4.0 (4.0–16.0) (n = 6) h
Free PTH t½ ([6]; MAD, 16 μg PTH(1-34)/day s.c. x 10 days, n = 4): 60.0 (20.3) (n = 4) h
Free PTH AUC0-24h ([6]; MAD, 16 μg PTH(1-34)/day s.c. x 10 days, n = 5): 152 (9.4) (n = 5) h*pg/mL
Free PTH Cmax [6, 12]: 6.87 (16.8) (n = 7) pg/mL
Free PTH tmax [6, 12]: 8.0 (4.0–12.0) (n = 7) h
Free PTH t½ ([6]; MAD, 20 μg PTH(1-34)/day s.c. x 10 days, n = 5): 51.7 (44.5) (n = 5) h
Free PTH AUC0-24h [6, 13]: 165 (21.7) (n = 6) h*pg/mL
Free PTH Cmax [6, 13]: 8.30 (21.4) (n = 6) pg/mL
Free PTH tmax [6, 13]: 6.1 (4.0–16.1) (n = 6) h
Free PTH AUC0-24h [6, 14]: 231 (24.2) (n = 3) h*pg/mL
Free PTH Cmax [6, 14]: 11.1 (27.6) (n = 3) pg/mL
Free PTH t½ [6, 14]: 69.0 (22.3) (n = 3) h
Free PTH tmax [6, 14]: 7.9 (4.0–12.0) (n = 3) h
Free PTH level ([6]; MAD, TransCon PTH 12 μg PTH(1-34)/day): 5 pg/mL
mean effective half-life of Free PTH ([6]; after multiple daily s.c. dosings, healthy adults): approximately 60 hours
serum BSAP (osteoblastic bone formation marker) (healthy adults [7]; 10 days of administration, compared to placebo): neither the osteoblastic bone formation marker, BSAP (Fig. 8) or P1NP (data not shown), increased
P1NP (osteoblastic bone formation marker) (healthy adults [7]; 10 days of administration, compared to placebo, data not shown): neither the osteoblastic bone formation marker, BSAP (Fig. 8) or P1NP (data not shown), increased
time course of serum CTx levels (healthy adults [7]; Free PTH at steady-state until at least day 11): declined from day 8 to baseline by day 13
serum CTx (osteoclastic bone resorption marker) (healthy adults [7]; over 10 days of administration, compared to placebo): increased modestly
urine NTx (osteoclastic bone resorption marker) (healthy adults [7]; over 10 days, data not shown): no consistent increase
Free PTH tmax ([8]; single s.c. 48 μg PTH(1-34), healthy adults, n = 7): 8.0 (4.0–24.0) (n = 7) h
Free PTH Cmax ([8]; single s.c. 48 μg PTH(1-34), healthy adults, plasma, UHPLC-MS/MS, n = 7): 6.61 (19.7) (n = 7) pg/mL
Free PTH t½ ([8]; single s.c. 72 μg PTH(1-34), n = 5): 54.4 (18.9) (n = 5) h
Free PTH Cmax [8, 15]: 7.67 (28.5) (n = 7) pg/mL
Free PTH AUC0-t ([8]; single s.c. 72 μg PTH(1-34), healthy adults, plasma, UHPLC-MS/MS, n = 5): 420 (20.3) (n = 5) h*pg/mL
Free PTH tmax [8, 15]: 4.0 (4.0–60.3) (n = 7) h
Free PTH t½ ([8]; single s.c. 100 μg PTH(1-34), n = 7): 51.0 (32.4) (n = 7) h
Free PTH AUC0-t [8, 16]: 594 (17.3) (n = 8) h*pg/mL
Free PTH Cmax [8, 16]: 12.9 (11.7) (n = 8) pg/mL
Free PTH tmax [8, 16]: 6.0 (4.0–8.0) (n = 8) h
Free PTH t½ ([8]; single s.c. 124 μg PTH(1-34), n = 7): 55.7 (37.1) (n = 7) h
Free PTH AUC0-t [8, 17]: 684 (36.9) (n = 8) h*pg/mL
Free PTH Cmax [8, 17]: 13.8 (45.5) (n = 8) pg/mL
Free PTH tmax [8, 17]: 4.0 (4.0–60.0) (n = 8) h
1,25-dihydroxyvitamin D levels (healthy adults [9]): did not change significantly
